Laboratory results: patent US20120141482A1
Several values for one entry are separate records, joined by “and”; a condition that tells them apart may be missing. Identical values can stand only once.

Assays:
dEV-8/H-2 K^bm3 complex = test: cell-based or functional assay
SIY/H-2 K^bm3 complex [1] = test: cell-based or functional assay
[2] = molecular target: p2Ca/H-2 L^d complex (mouse) (UniProt P01897); test: cell-based or functional assay
[3] = molecular target: SIY/H-2 K^b complex (mouse) (UniProt P01901); test: cell-based or functional assay
[4] = molecular target: serologically reactive H-2 L^d on RENCA cells (mouse) (UniProt P01897); test: flow cytometry on RENCA cells stimulated with 5-50 units/ml γ-IFN
[5] = molecular target: serologically reactive H-2 L^d on RENCA cells (mouse) (UniProt P01897); test: flow cytometry on unstimulated RENCA cells
[6] = molecular target: unloaded H-2 L^d molecules on RMA-S L^d cells (mouse) (UniProt P01897); test: direct flow cytometry on RMA-S L^d cells without peptide
[7] = molecular target: QL9/H-2 L^d complex (mouse) (UniProt P01897); test: flow cytometry on L^d cells loaded with graded peptide concentrations; highest value
[8] = molecular target: p2Ca/H-2 L^d complex (mouse) (UniProt P01897); test: as above
[9] = molecular target: p2Ca/H-2 L^d complex (mouse) (UniProt P01897); test: flow cytometry, serial dilutions on p2Ca-loaded RMA-S L^d cells, detected with H57-FITC
[10] = molecular target: pVSV/H-2 K^b complex (mouse) (UniProt P01901); test: flow cytometry on T2 K^b cells, control peptide (background)
[11] = molecular target: p2Ca/H-2 L^d complex (mouse) (UniProt P01897); test: flow cytometry competition with constant FITC-30.5.7 Fab on peptide-loaded RMA-S L^d cells
[12] = molecular target: SL9/H-2 L^d complex (mouse) (UniProt P01897); test: direct flow cytometry on peptide-loaded RMA-S L^d cells
[13] = molecular target: QL9/H-2 L^d complex (mouse) (UniProt P01897); test: flow cytometry, serial dilutions on QL9-loaded RMA-S L^d cells, detected with H57-FITC
[14] = molecular target: unloaded H-2 L^d molecules on RMA-S L^d cells (mouse) (UniProt P01897); test: direct flow cytometry on RMA-S L^d cells, unloaded (background)
[15] = molecular target: H-2 L^d loaded with an irrelevant H-2 L^d binding peptide (mouse) (UniProt P01897); test: direct flow cytometry on RMA-S L^d cells, irrelevant peptide (background)
SIY/H-2 K^bm3 complex [16] = test: flow cytometry on peptide-loaded T2 K^bm3 cells
[17] = molecular target: QL9/H-2 L^d complex (mouse) (UniProt P01897); test: direct flow cytometry on peptide-loaded L^d cells
[18] = molecular target: SIY/H-2 K^b complex (mouse) (UniProt P01901); test: flow cytometry on peptide-loaded T2 K^b cells
[19] = molecular target: TCR of 5KC, a moth cytochrome C (MCC)-specific, I-E^k-restricted T cell hybridoma; test: cell-based or functional assay
[20] = molecular target: TCR of 5KC, a moth cytochrome C (MCC)-specific, I-E^k-restricted T cell hybridoma; test: flow cytometry on 5KC hybridoma cells
[21] = molecular target: TCR of 5KC, a moth cytochrome C (MCC)-specific, I-E^k-restricted T cell hybridoma; test: flow cytometry on 5KC hybridoma cells; reference cells without primary reagent
[22] = molecular target: p2Ca/H-2 L^d complex (mouse) (UniProt P01897); test: flow cytometry competition with FITC-30.5.7 Fab on peptide-loaded RMA-S L^d cells

Sequence of 2C TCR on 2C CTL (A2KF29 whole entry): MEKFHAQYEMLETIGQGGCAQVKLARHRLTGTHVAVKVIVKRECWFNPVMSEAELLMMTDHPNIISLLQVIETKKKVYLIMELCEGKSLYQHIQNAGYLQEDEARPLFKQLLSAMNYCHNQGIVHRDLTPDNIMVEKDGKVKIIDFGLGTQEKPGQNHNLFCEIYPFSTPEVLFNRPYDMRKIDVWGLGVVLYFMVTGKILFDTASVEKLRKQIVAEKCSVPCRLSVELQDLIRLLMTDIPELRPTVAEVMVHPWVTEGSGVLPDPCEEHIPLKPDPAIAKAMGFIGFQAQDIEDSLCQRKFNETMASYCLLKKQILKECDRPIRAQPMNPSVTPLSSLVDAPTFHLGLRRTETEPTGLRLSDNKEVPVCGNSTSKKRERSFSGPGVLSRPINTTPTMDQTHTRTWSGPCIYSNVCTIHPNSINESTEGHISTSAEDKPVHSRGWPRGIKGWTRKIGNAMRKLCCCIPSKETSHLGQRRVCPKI
Sequence of p2Ca/H-2 L^d complex (mouse) (P01897 25-309, one chain of several): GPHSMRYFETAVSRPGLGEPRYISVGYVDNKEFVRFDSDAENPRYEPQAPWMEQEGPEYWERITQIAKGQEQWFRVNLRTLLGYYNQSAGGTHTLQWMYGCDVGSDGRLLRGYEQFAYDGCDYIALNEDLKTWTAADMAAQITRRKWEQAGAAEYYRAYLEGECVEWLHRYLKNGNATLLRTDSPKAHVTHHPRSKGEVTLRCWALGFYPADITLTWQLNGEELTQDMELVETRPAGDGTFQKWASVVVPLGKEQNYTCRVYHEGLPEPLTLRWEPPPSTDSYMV
Sequence of QL9/H-2 L^d complex (mouse) (P01897 25-309, one chain of several): as above
Sequence of serologically reactive H-2 L^d on RENCA cells (mouse) (P01897 25-362): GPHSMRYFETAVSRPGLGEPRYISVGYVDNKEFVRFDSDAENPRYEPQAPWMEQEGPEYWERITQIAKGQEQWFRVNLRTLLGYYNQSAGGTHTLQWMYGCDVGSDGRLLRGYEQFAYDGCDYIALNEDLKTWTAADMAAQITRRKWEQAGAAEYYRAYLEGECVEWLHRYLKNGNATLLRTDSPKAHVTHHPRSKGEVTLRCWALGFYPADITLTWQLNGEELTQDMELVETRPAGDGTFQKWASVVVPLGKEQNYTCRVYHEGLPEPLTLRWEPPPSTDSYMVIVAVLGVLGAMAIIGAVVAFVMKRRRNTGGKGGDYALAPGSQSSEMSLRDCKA
Sequence of unloaded H-2 L^d molecules on RMA-S L^d cells (mouse) (P01897 25-309): as the sequence (P01897 25-309, one chain of several) above
Sequence of SIY/H-2 K^b complex (mouse) (P01901 22-369, one chain of several): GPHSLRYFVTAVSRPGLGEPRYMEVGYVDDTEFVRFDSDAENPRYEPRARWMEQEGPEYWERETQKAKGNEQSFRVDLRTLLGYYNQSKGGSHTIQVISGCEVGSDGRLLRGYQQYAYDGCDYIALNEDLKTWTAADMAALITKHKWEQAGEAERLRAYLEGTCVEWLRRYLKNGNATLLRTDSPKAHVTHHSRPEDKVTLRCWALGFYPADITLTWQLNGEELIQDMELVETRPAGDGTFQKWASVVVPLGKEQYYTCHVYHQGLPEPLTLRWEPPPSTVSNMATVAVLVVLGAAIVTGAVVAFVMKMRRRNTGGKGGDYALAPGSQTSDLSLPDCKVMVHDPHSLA
Sequence of H-2 L^d loaded with an irrelevant H-2 L^d binding peptide (mouse) (P01897 25-309): as the sequence (P01897 25-309, one chain of several) above
Sequence of SL9/H-2 L^d complex (mouse) (P01897 25-309, one chain of several): as above
Sequence of pVSV/H-2 K^b complex (mouse) (P01901 22-369, one chain of several): as the sequence (P01901 22-369, one chain of several) above

2C TCR on 2C CTL (from UniProt A2KF29)
2C CTL mediated lysis, LD50 (peptide concentration) (dEV-8/H-2 K^bm3 complex): 0.5 ng/mL and 1 ng/mL
2C CTL mediated lysis, LD50 (peptide concentration) (SIY/H-2 K^bm3 complex [1]): 100 ng/mL
2C CTL mediated lysis of p2Ca-loaded T2 L^d cells, LD50 (peptide concentration) [2]: 0.5 ng/mL
2C CTL mediated lysis, LD50 (peptide concentration) [3]: 10 ng/mL

mAb 30.5.7 (antibody)
MCF [4]: 2670 to 3040 MCF
MCF [5]: 500 MCF
fold increase of mean channel fluorescence, cells at 27° C. against 37° C. [6]: 5 fold
MCF [7]: 3000 MCF
MCF [8]: 3000 MCF

soluble divalent 2C TCR/Ig (from UniProt A2KF29)
concentration required to detect binding [9]: 3 nM
MCF [10]: 14 MCF
Kapp [11]: 108 nM
MCF [12]: 100 MCF
lowest concentration at which binding was detected [13]: < 1 nM
MCF [14]: 10 MCF
MCF [15]: 10 MCF
MCF (SIY/H-2 K^bm3 complex [16]): 36 MCF
MCF [8]: 600 MCF
MCF [17]: 3000 MCF
MCF [18]: 276 MCF

soluble divalent ^MCCI-E^k/IgG (peptide-MHC)
IL-2 production, fold stimulation over anti-CD3 mAb at 92 ng/ml [19]: 10 fold
lowest concentration at which specific staining was seen [20]: 5 nM
mean channel fluorescence [20]: 300 MCF
fold increase of mean channel fluorescence [21]: 15 fold

soluble monovalent 2C TCR (from UniProt A2KF29)
concentration required to detect binding [9]: > 3000 nM
Kapp [11]: > 2000 nM
concentration required to detect binding [13]: > 100 nM
Kd [22]: > 2000 nM
